Measurements from patent US20050032689A1, “Methods for treatment or diagnosis of disease or disorders associated with an APB domain” (New York University, priority 1994, published 2005).

T1: binding of Shc 1-209 to the EGF receptor (Mus musculus, UniProt P98083)
T1 construct: we generated Shc 1-209 as a GST fusion protein; made in house; host or cells: bacteria (pGSTag vector)
T1 sequence (P98083 111-319): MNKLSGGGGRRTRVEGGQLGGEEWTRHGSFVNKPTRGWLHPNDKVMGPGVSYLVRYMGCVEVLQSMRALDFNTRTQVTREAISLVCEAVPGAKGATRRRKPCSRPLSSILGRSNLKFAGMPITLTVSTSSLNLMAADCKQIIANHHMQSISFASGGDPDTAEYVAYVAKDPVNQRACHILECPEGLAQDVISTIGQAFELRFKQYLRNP


Columns and labels:
[1] = target: T2, binding of the Grb7 SH2 domain to EGF receptor (Mus musculus, UniProt Q03160); assay: Phosphotyrosine inhibition of Grb7 SH2 domain binding to EGF receptor; details: 30 mM phosphotyrosine; results not shown
T2 construct: made in house; host or cells: bacteria
T2 sequence (Q03160 434-530 limits assumed): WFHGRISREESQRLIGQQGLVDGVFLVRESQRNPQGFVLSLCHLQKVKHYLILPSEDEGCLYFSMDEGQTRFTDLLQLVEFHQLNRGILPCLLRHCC
Text: (§1) Accordingly we examined the binding of the Shc amino terminus (hereafter referred to as Shc 1-209) in further detail. First we determined if the binding of Shc 1-209 was dependent on EGF receptor activation. To perform these studies we generated Shc 1-209 as a GST fusion protein and examined its ability to bind EGF receptor from lysates of NIH 3T3 cells. […] We asked if this binding was dependent on receptor autophosphorylation. EGF receptor was immunoprecipitated from unstimulated cells and then tyrosine-phosphorylated in vitro by adding Mn^2+ and ATP. […] To confirm that the binding was dependent on autophosphorylation, we examined the binding of Shc 1-209 to EGF receptor mutants lacking autophosphorylation sites. […] This may represent a difference in the affinity of interactions or a basic difference in the molecular mechanism of EGF receptor interaction with Shc 1-209 versus SH2 domains.

[2] = target: T1, binding of Shc 1-209 to the EGF receptor; assay: Phosphotyrosine inhibition of Shc 1-209 binding to EGF receptor; details: 30 mM phosphotyrosine; results not shown
Text: as §1

[3] = tested on: HER2/neu (HER1/2 chimera); assay: Binding of GST-Shc fusion proteins to HER1/2 chimera from NIH 3T3 lysates, anti-phosphotyrosine blot; details: EGF-stimulated NIH 3T3 lysates
Protocol: FIGS. 4A, 4B, 4C and 4D. Binding of Shc fragments to growth factor receptors. A, schematic diagram illustrating the Shc fragments used in binding studies. Full length murine p52^shc is indicated in (i) while (ii)-(vi) were generated as GST fusion proteins for use in receptor binding studies. B, association of various GST fusion proteins with activated EGF receptor (EGFR). Binding was performed as in FIG. 2A with the exception that all lysates were stimulated with EGF. All studies used 3 μg of fusion proteins except for the Shc SH2 where 10 μg was used. Immunoblotting was performed with anti-phosphotyrosine. C, binding of Shc fusion proteins to NIH 3T3 cells expressing a HER1/2 chimera. This chimera consists of the EGF receptor extracellular binding domain and the intracellular region of HER2/neu. After stimulation of these cells with EGF (200 ng/ml) lysates were prepared and binding as well as blotting studies were performed as in B using anti-phosphotyrosine antibody. D, binding of Shc 1-209 to TrkA. Beads containing 10 μg of GST fusion proteins Shc 1-209, phospholipase C-γ (PLC-γ) SH2 (contains both N and C SH2 domains), or GST alone were added to lysates from 2×10^7 PC12 cells stimulated with 50 ng/ml nerve growth factor (lanes 1, 2, and 4). The binding of the same amount of lysate to 2 μg of anti-TrkA antibody is shown as a positive control and to indicate the position of TrkA on the blot (lane 3). Otherwise, the binding and blotting were performed as in B using anti-phosphotyrosine antibody. […] Protein concentration was determined by SDS-PAGE (polyacrylamide gel electrophoresis) using bovine serum albumin as a standard. […]

EGF receptor = target: T3, EGF receptor (Homo sapiens, UniProt P00533); assay: Binding of GST fusion proteins on glutathione-agarose beads to EGF receptor from HER14 cell lysates, immunoblot; details: GST fusion protein, lysates of EGF-stimulated or unstimulated cells
T3 construct: expressed in transfected cells; host or cells: HER14 (NIH 3T3 cells expressing human EGF receptor)
Protocol: FIGS. 2A and 2B. Association of GST-Shc 1-209 with the EGF Receptor (EGFR). A, HER14 lysates from either EGF-stimulated (+) or unstimulated (−) cells (5×10^6 cells) were incubated with 3 μg of GST fusion protein immobilized on glutathione-agarose beads. The bound proteins were washed, subjected to SDS-PAGE, transferred to nitrocellulose and immunoblotted with anti-EGF receptor antibody, anti-C (anti-EGFR). HER14 lysate (4×10^5 cells) was run directly on the gel in lanes 5 and 6. B, unstimulated HER14 lysates (5×10^6 cells) were immunoprecipitated with anti-EGFR antibody (mAb 108). The immobilized receptor was then phosphorylated (+) by the addition of 5 mM MnCl2 and 50 μM ATP or left unphosphorylated (−) by adding MnCl2 alone. Bacterial lysates containing 5 μg of GST, GST-Grb7, and GST-Shc 1-209 were then diluted in 1 ml of 1% Triton X-100 lysis buffer, added to the immobilized receptor and incubated at 4° C. for 90 min. The bound proteins were washed and together with 40 μl of the post-binding supernatant separated by SDS-PAGE and transferred to nitrocellulose. The bound fractions (left panel) and supernatants (right panel) were immunoblotted with anti-GST. FIGS. 4A, 4B, 4C and 4D. Binding of Shc fragments to growth factor receptors. A, schematic diagram illustrating the Shc fragments used in binding studies. Full length murine p52^shc is indicated in (i) while (ii)-(vi) were generated as GST fusion proteins for use in receptor binding studies. B, association of various GST fusion proteins with activated EGF receptor (EGFR). Binding was performed as in FIG. 2A with the exception that all lysates were stimulated with EGF. All studies used 3 μg of fusion proteins except for the Shc SH2 where 10 μg was used. Immunoblotting was performed with anti-phosphotyrosine. C, binding of Shc fusion proteins to NIH 3T3 cells expressing a HER1/2 chimera. This chimera consists of the EGF receptor extracellular binding domain and the intracellular region of HER2/neu. After stimulation of these cells with EGF (200 ng/ml) lysates were prepared and binding as well as blotting studies were performed as in B using anti-phosphotyrosine antibody. D, binding of Shc 1-209 to TrkA. Beads containing 10 μg of GST fusion proteins Shc 1-209, phospholipase C-γ (PLC-γ) SH2 (contains both N and C SH2 domains), or GST alone were added to lysates from 2×10^7 PC12 cells stimulated with 50 ng/ml nerve growth factor (lanes 1, 2, and 4). The binding of the same amount of lysate to 2 μg of anti-TrkA antibody is shown as a positive control and to indicate the position of TrkA on the blot (lane 3). Otherwise, the binding and blotting were performed as in B using anti-phosphotyrosine antibody. […]

Molecule | inhibition of binding of the Grb7 SH2 domain to the EGF receptor [1] | inhibition of binding of Shc 1-209 to the EGF receptor [2] | binding to HER2/neu [3] | binding to EGF receptor (EGF receptor)
N[C@@H](Cc1ccc(OP(=O)(O)O)cc1)C(=O)O [phosphotyrosine] | completely inhibited | partially inhibit | – | –
Shc 46-209: amino acids encoding the amino terminus of p46Shc, GST fusion protein (protein, UniProt P98083 46-209, looked up, fragment, GST fusion, amino acids encoding the amino terminus of p46Shc, GST fusion protein) LPPLPGDDSPTTLCSFFPRMSNLKLANPAGGRLGPKGEPGKAAEDGEGSAGAALRDSGLLPLLQDMNKLSGGGGRRTRVEGGQLGGEEWTRHGSFVNKPTRGWLHPNDKVMGPGVSYLVRYMGCVEVLQSMRALDFNTRTQVTREAISLVCEAVPGAKGATRRR | – | – | can bind both EGF receptor and HER2/neu receptor | can bind both EGF receptor and HER2/neu receptor
Shc 85-209: Shc construct with a more severe amino-terminal deletion, GST fusion protein (protein, UniProt P98083 85-209, looked up, fragment, GST fusion, Shc construct with a more severe amino-terminal deletion, GST fusion protein) GKAAEDGEGSAGAALRDSGLLPLLQDMNKLSGGGGRRTRVEGGQLGGEEWTRHGSFVNKPTRGWLHPNDKVMGPGVSYLVRYMGCVEVLQSMRALDFNTRTQVTREAISLVCEAVPGAKGATRRR | – | – | did not bind growth factor receptors | did not bind growth factor receptors
